The text below walks through data of the supplement of paper PMC11246515.

± gives the standard deviation of the averaged measurements.

The data set can be described thus: total protein half-life in vivo (active degradation + dilution); higher = more stable protein.
The mark [1] stands for this setting: E. coli NCM3722 delta-clpP delta-lon delta-hslV, growth: N-lim chemostat, doubling time 6 h.
Setting [2] is: E. coli NCM3722 delta-hslV, growth: N-lim chemostat, doubling time 6 h.
Setting [3] is: E. coli NCM3722 delta-lon, growth: N-lim chemostat, doubling time 6 h.
The mark [4] stands for this setting: E. coli NCM3722 delta-smpB, growth: N-lim chemostat, doubling time 6 h.
Setting [5] is: wild type E. coli NCM3722, growth: C-lim chemostat, doubling time 3 h.
[6] abbreviates: wild type E. coli NCM3722, growth: C-lim chemostat, doubling time 6 h.
Setting [7] is: wild type E. coli NCM3722, growth: C-lim chemostat, doubling time 12 h.
Where [8] appears, read: wild type E. coli NCM3722, growth: N-lim chemostat, doubling time 6 h.
Setting [9] is: wild type E. coli NCM3722, growth: N-lim chemostat, doubling time 12 h.
Where [10] appears, read: wild type E. coli NCM3722, growth: P-lim chemostat, doubling time 6 h.
The mark [11] stands for this setting: wild type E. coli NCM3722, growth: P-lim chemostat, doubling time 12 h.
Setting [12] is: E. coli NCM3722 delta-clpP, growth: N-lim chemostat, doubling time 6 h.

Consider “MKKLLPILIGLSLSGFSSLSQAENLMQVYQQARLSNPELRKSAADRDAAFEKINEARSPLLPQLGLGADYTYSNGYRDANGINSNATSASLQLTQSIFDMSKWRALTLQEKAAGIQDVTYQTDQQTLILNTATAYFNVLNAIDVLSYTQAQKEAIYRQLDQTTQRFNVGLVAITDVQNARAQYDTVLANEVTARNNLDNAVEQLRQITGNYYPELAALNVENFKTDKPQPVNALLKEAEKRNLSLLQARLSQDLAREQIRQAQDGHLPTLDLTASTGISDTSYSGSKTRGAAGTQYDDSNMGQNKVGLSFSLPIYQGGMVNSQVKQAQYNFVGASEQLESAHRSVVQTVRSSFNNINASISSINAYKQAVVSAQSSLDAMEAGYSVGTRTIVDVLDATTTLYNAKQELANARYNYLINQLNIKSALGTLNEQDLLALNNALSKPVSTNPENVAPQTPEQNAIADGYAPDSPAPVVQQTSARTTTSNGHNPFRN”, for which the “total protein half-life in vivo” value under setting [1] is 6.4 ± 0.68 h; the “total protein half-life in vivo” value under setting [2] worked out at 7.27 ± 0.62 h; the “total protein half-life in vivo” value under setting [3] was 6.96 ± 0.25 h; the “total protein half-life in vivo” value under setting [4] was found to be 6.09 ± 0.28 h; the “total protein half-life in vivo” value under setting [5] worked out at 3.15 ± 0.091 h; the “total protein half-life in vivo” value under setting [6] came out at 6.46 ± 0.065 h. The “total protein half-life in vivo” value was determined as 12.5 ± 0.56 h under setting [7]; 5.95 ± 0.79 h under setting [8]; 13.3 ± 0.99 h under setting [9]; 5.09 ± 0.13 h under setting [10]; 10.7 ± 0.21 h under setting [11].
For “MAANAFVRARIDEDLKNQAADVLAGMGLTISDLVRITLTKVAREKALPFDLREPNQLTIQSIKNSEAGIDVHKAKDADDLFDKLGI”, the “total protein half-life in vivo” value is, setting by setting: under setting [1], 2.38 ± 0.28 h; under setting [6], 0.925 ± 0.13 h; under setting [7], 0.789 h; under setting [8], 0.421 h; under setting [9], 4.6 h; under setting [10], 0.432 h. Besides, the “total protein half-life in vivo” value under setting [11] was 1.38 h.
Regarding “MDQFECINVADAHQKLQEKEAVLVDIRDPQSFAMGHAVQAFHLTNDTLGAFMRDNDFDTPVMVMCYHGNSSKGAAQYLLQQGYDVVYSIDGGFEAWQRQFPAEVAYGA [P0A6V5]”, the “total protein half-life in vivo” value under setting [8] was 1.91 h.
Consider “MKYSLGPVLWYWPKETLEEFYQQAATSSADVIYLGEAVCSKRRATKVGDWLEMAKSLAGSGKQIVLSTLALVQASSELGELKRYVENGEFLIEASDLGVVNMCAERKLPFVAGHALNCYNAVTLKILLKQGMMRWCMPVELSRDWLVNLLNQCDELGIRNQFEVEVLSYGHLPLAYSARCFTARSEDRPKDECETCCIKYPNGRNVLSQENQQVFVLNGIQTMSGYVYNLGNELASMQGLVDVVRLSPQGTDTFAMLDAFRANENGAAPLPLTANSDCNGYWRRLAGLELQA”, for which the “total protein half-life in vivo” value under setting [1] amounted to 3.35 h.
In the case of “MSDQIIARVSQSLAKEQSLESLVRQLLEMLEMVTDMESTYLTKVDVEARLQHIMFARNSQKMYIPENFTVSWDYSLCKRAIDENCFFSDEVPDRWGDCIAARNLGITTFLSTPIHLPDGSFYGTLCAASSEKRQWSERAEQVLQLFAGLIAQYIQKEALVEQLREANAALIAQSYTDSLTGLPNRRAIFENLTTLFSLARHLNHKIMIAFIDLDNFKLINDRFGHNSGDLFLIQVGERLNTLQQNGEVIGRLGGDEFLVVSLNNENADISSLRERIQQQIRGEYHLGDVDLYYPGASLGIVEVDPETTDADSALHAADIAMYQEKKHKQKTPFVAHPALHS”, the “total protein half-life in vivo” value under setting [5] was 0.233 h.
For the sequence “MKPTTLLLIFTFFAMPGIVYAESPFSSLQSAKEKTTVLQDLRKICTPQASLSDEAWEKLMLSDENNKQHIREAIVAMERNNQSNYWEALGKVECPDM [Q2M7X4]”, the “total protein half-life in vivo” value under setting [1] was 4.53 h.
Take “MENNEIQSVLMNALSLQEVHVSGDGSHFQVIAVGELFDGMSRVKKQQTVYGPLMEYIADNRIHAVSIKAYTPAEWARDRKLNGF [P0A9W6]”: the “total protein half-life in vivo” value by setting is: under setting [1], 5.36 ± 0.32 h; under setting [12], 3.86 ± 0.21 h; under setting [2], 4.35 ± 0.56 h; under setting [3], 5.87 ± 1.2 h; under setting [4], 4.08 ± 0.3 h; under setting [5], 3.11 ± 0.42 h. The “total protein half-life in vivo” value came out at 4.5 h under setting [6]; 7.8 ± 0.37 h under setting [7]; 4.09 ± 0.043 h under setting [8]; 7.378 ± 0.011 h under setting [9]; 4.79 ± 0.25 h under setting [10]; 10.8 ± 1.1 h under setting [11].
In the case of “MMDNDNSLNKRPTFKRALRNISMTSIFITMMLIWLLLSVTSVLTLKQYAQKNLALTAATMTYSLEAAVVFADGPAATETLAALGQQGQFSTAEVRDKQQNILASWHYTRKDPGDTFSNFISHWLFPAPIIQPIRHNGETIGEVRLTARDSSISHFIWFSLAVLTGCILLASGIAITLTRHLHNGLVEALKNITDVVHDVRSNRNFSRRVSEERIAEFHRFALDFNSLLDEMEEWQLRLQAKNAQLLRTALHDPLTGLANRAAFRSGINTLMNNSDARKTSALLFLDGDNFKYINDTWGHATGDRVLIEIAKRLAEFGGLRHKAYRLGGDEFAMVLYDVQSESEVQQICSALTQIFNLPFDLHNGHQTTMTLSIGYAMTIEHASAEKLQELADHNMYQAKHQRAEKLVR”, the “total protein half-life in vivo” value under setting [1] is 4.053 ± 0.0067 h, the “total protein half-life in vivo” value under setting [8] came to 0.877 h and the “total protein half-life in vivo” value under setting [10] is 1.69 h.
Regarding “MSNAQEAVKTRHKETSLIFPVLALVVLFLWGSSQTLPVVIAINLLALIGILSSAFSVVRHADVLAHRLGEPYGSLILSLSVVILEVSLISALMATGDAAPTLMRDTLYSIIMIVTGGLVGFSLLLGGRKFATQYMNLFGIKQYLIALFPLAIIVLVFPMALPAANFSTGQALLVALISAAMYGVFLLIQTKTHQSLFVYEHEDDSDDDDPHHGKPSAHSSLWHAIWLIIHLIAVIAVTKMNASSLETLLDSMNAPVAFTGFLVALLILSPEGLGALKAVLNNQVQRAMNLFFGSVLATISLTVPVVTLIAFMTGNELQFALGAPEMVVMVASLVLCHISFSTGRTNVLNGAAHLALFAAYLMTIFA”, the “total protein half-life in vivo” value is more than 8 h under setting [12], 6.69 h under setting [4], more than 16 h under setting [7] and 6.87 h under setting [10].
Take “MFKPELLSPAGTLKNMRYAFAYGADAVYAGQPRYSLRVRNNEFNHENLQLGINEAHALGKKFYVVVNIAPHNAKLKTFIRDLKPVVEMGPDALIMSDPGLIMLVREHFPEMPIHLSVQANAVNWATVKFWQQMGLTRVILSRELSLEEIEEIRNQVPDMEIEIFVHGALCMAYSGRCLLSGYINKRDPNQGTCTNACRWEYNVQEGKEDDVGNIVHKYEPIPVQNVEPTLGIGAPTDKVFMIEEAQRPGEYMTAFEDEHGTYIMNSKDLRAIAHVERLTKMGVHSLKIEGRTKSFYYCARTAQVYRKAIDDAAAGKPFDTSLLETLEGLAHRGYTEGFLRRHTHDDYQNYEYGYSVSDRQQFVGEFTGERKGDLAAVAVKNKFSVGDSLELMTPQGNINFTLEHMENAKGEAMPIAPGDGYTVWLPVPQDLELNYALLMRNFSGETTRNPHGK”: the “total protein half-life in vivo” value is, setting by setting: under setting [1], 2.98 ± 0.19 h; under setting [12], 1.94 ± 0.45 h; under setting [2], 1.96 ± 0.29 h; under setting [3], 2.01 ± 0.14 h; under setting [4], 1.77 ± 0.092 h; under setting [5], 2.77 ± 0.029 h. Also, the “total protein half-life in vivo” value was determined as 3.68 ± 0.062 h under setting [6]; 5.83 ± 0.49 h under setting [7]; 1.91 ± 0.17 h under setting [8]; 2.5 ± 0.0042 h under setting [9]; 4.1 ± 0.069 h under setting [10]; 7.89 ± 0.33 h under setting [11].
